The record followed here is PMC3637499.

Bounds are passed on as bounds.

Test [1] addresses Chico-RFP (Drosophila) (UniProt Q9XTN2). Briefly: FRET or BRET; sensitised emission FRET, CFP donor and mRFP acceptor, confocal microscopy of fixed larval salivary glands co-expressing both fusions (hsp-Gal4); glands incubated 15 min in Schneider's medium with insulin (100 nM); FRETeff >=10% taken as positive. A general note: BRET reads energy transfer from a luciferase to a nearby fluorophore.

The target is the same in test [2]. Briefly: FRET or BRET; sensitised emission FRET, CFP donor and mRFP acceptor, confocal microscopy of fixed larval salivary glands co-expressing both fusions (hsp-Gal4); glands incubated 15 min in Schneider's medium without insulin; FRETeff >=10% taken as positive.
For test [3], the target named is InR-CFP (Drosophila) (UniProt P09208). Briefly: FRET or BRET; sensitised emission FRET, CFP donor and mRFP acceptor, confocal microscopy of fixed larval salivary glands co-expressing both fusions (hsp-Gal4); glands incubated 15 min in Schneider's medium with insulin (100 nM); FRETeff >=10% taken as positive.
UniProt P09208, sequence (P09208 1086-2144): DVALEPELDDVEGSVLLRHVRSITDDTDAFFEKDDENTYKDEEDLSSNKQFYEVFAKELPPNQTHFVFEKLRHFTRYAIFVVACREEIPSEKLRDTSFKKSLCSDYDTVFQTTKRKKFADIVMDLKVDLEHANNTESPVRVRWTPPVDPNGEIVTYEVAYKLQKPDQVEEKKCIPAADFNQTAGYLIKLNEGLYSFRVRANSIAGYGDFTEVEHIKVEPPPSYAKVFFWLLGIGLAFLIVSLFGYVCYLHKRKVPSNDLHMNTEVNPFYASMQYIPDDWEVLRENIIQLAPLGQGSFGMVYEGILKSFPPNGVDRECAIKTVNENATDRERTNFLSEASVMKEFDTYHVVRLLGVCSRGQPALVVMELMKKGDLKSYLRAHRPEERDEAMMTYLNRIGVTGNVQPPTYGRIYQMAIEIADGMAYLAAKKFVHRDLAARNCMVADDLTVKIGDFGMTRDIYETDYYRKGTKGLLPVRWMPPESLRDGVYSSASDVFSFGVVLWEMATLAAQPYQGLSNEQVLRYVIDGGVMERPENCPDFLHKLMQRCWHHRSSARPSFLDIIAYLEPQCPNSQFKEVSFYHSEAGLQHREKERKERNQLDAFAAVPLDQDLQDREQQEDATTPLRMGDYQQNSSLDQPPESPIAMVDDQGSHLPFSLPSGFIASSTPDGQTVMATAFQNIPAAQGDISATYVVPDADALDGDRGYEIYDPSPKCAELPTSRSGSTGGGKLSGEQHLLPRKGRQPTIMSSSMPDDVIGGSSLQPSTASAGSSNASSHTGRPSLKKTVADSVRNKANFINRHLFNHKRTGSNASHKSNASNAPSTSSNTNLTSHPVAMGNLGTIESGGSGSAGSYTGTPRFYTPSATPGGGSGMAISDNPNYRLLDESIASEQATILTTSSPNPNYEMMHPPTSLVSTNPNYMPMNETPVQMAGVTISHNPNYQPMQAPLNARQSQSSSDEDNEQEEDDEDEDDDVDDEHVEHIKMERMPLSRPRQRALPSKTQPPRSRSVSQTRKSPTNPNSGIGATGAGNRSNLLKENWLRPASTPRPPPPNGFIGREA
For test [4] the target is unchanged. In words: FRET or BRET; sensitised emission FRET, CFP donor and mRFP acceptor, confocal microscopy of fixed larval salivary glands co-expressing both fusions (hsp-Gal4); glands incubated 15 min in Schneider's medium without insulin; FRETeff >=10% taken as positive.
Test [5] has the same target. The test is described as above. This is another data set of the same source.
Test [6] shares this target. Briefly: FRET or BRET; sensitised emission FRET, CFP donor and mRFP acceptor, confocal microscopy of fixed larval salivary glands co-expressing both fusions (hsp-Gal4); glands incubated 15 min in Schneider's medium with insulin (100 nM); FRETeff >=10% taken as positive. This is another data set of the same source.
For another test, the target named is Lnk-CFP (Drosophila). In words: FRET or BRET; sensitised emission FRET, negative controls with Delta-RFP as acceptor in fixed larval salivary glands; insulin condition not stated; absence of FRET yields values <3%.
Test [7] concerns the target InR-CFP (Drosophila) (UniProt P09208). The description is as above.

As for Lnk-CFP (natural protein), in the test with Chico-RFP (Drosophila) [1], the FRET efficiency (FRETeff) is 14.8% and the percent of tissue samples with positive FRET was determined as 73%. In the test with Chico-RFP (Drosophila) [2], the FRET efficiency (FRETeff) turned out to be 13.3% and the percent of tissue samples with positive FRET stood at 30%.
As for Lnk-RFP (natural protein), the FRET efficiency (FRETeff) with InR-CFP (Drosophila) [3] was determined as 14%; with InR-CFP (Drosophila) [4], 10.8%. Further, the percent of tissue samples with positive FRET with InR-CFP (Drosophila) [3] was found to be 53%; with InR-CFP (Drosophila) [4], 60%.

B1: Chico-RFP (natural protein)
chain: MASISDDGMALSGYLKKLKTMKKKFFVLYEETSTSAARLEYYDTEKKFLQRAEPKRVIYLKNCFNINRRLDTKHRFVIVLSSRDGGFGIVLENENDLRKWLDKLLVLQRNIANSNGTAHSPYDHVWQVVIQKKGISEKVGITGTYHCCLTSKSLTFVCIGPEKTPNGEDRVASIEILLTTIRRCGHASPQCIFYVELGRQSVLGSGDLWMETDNAAIATNMHNTILSAMSAKTESNTNLINVYQNRPDLSHEPMRKRSSSANEASKPINVNVIQNSQNSLELRSCSSPHNYGFGRERCDSLPTRNGTLSESSNQTYFGSNHGLRSNTISGIRPHSTNKHSNSPTFTMPLRCSESEESSISVDESDDNGSFSHYRLNTRSSETAIPEENIDDFASAELFSKVTEQNVSDENYIPMNPVNPTDAIHEKEKADMQRLEDASLHFNFPEHASEKLAKDFDLDSDNQCCRPIRAYSIGNKVEHLKFNKRLGHLNDTGQNPNRVRAYSVGSKSKIPRCDLQRVVLVEDNKHEFTANRSQSSITKEGTSYGSSANRQKKSTSAPLLSLKNQINSDRMSDLMEIDFSQATNLEKQKFIKNNEIPKYIENVFPKAPRTDSSSLTLHATSQKDIFNGTKLNNTAITSEDGYLEMKPVGNGYTPSSNCLPMKVEKLKLSDYQTAPPLTATAAPVHDLNKISTYNISAEKWREQPSRSEEKKSNSPLNDNTFSSKPTNVESTSKSHDVHSANQIDCEKVCAQSSDKLNNHLADKIVENNNLDIGGHEEKKLVHSISSEDYTQIKDKSNDFTKFNEAGYKILQIKSDSSLISSKLYQKGIHKDNLERSQRLTESVNTIPDNATATAVSSSSLTKFNINSAKPAAAADSRSTGTDPSTPQNILQIKDLNFPSRSSSRISQPELHYASLDLPHCSGQNPAKYLKRGSRESPPVSACPEDGNTYAKIDFDQSDSSSSSSNIFNT
With B1, in the test with InR-CFP (Drosophila) [5], the FRET efficiency (FRETeff) amounted to 13.5% and the percent of tissue samples with positive FRET was 20%. In addition, in the test with InR-CFP (Drosophila) [6], the FRET efficiency (FRETeff) was found to be 14.1% and the percent of tissue samples with positive FRET stood at 71%.

B2: Delta-RFP (natural protein)
chain: QVHSSGSFELRLKYFSNDHGRDNEGRCCSGESDGATGKCLGSCKTRFRVCLKHYQATIDTTSQCTYGDVITPILGENSVNLTDAQRFQNKGFTNPIQFPFSFSWPGTFSLIVEAWHDTNNSGNARTNKLLIQRLLVQQVLEVSSEWKTNKSESQYTSLEYDFRVTCDLNYYGSGCAKFCRPRDDSFGHSTCSETGEIICLTGWQGDYCHIPKCAKGCEHGHCDKPNQCVCQLGWKGALCNECVLEPNCIHGTCNKPWTCICNEGWGGLYCNQDLNYCTNHRPCKNGGTCFNTGEGLYTCKCAPGYSGDDCENEIYSCDADVNPCQNGGTCIDEPHTKTGYKCHCANGWSGKMCEEKVLTCSDKPCHQGICRNVRPGLGSKGQGYQCECPIGYSGPNCDLQLDNCSPNPCINGGSCQPSGKCICPAGFSGTRCETNIDDCLGHQCENGGTCIDMVNQYRCQCVPGFHGTHCSSKVDLCLIRPCANGGTCLNLNNDYQCTCRAGFTGKDCSVDIDECSSGPCHNGGTCMNRVNSFECVCANGFRGKQCDEESYDSVTFDAHQYGATTQARADGLTNAQVVLIAVFSVAMPLVAVIAACVVFCMKRKRKRAQEKDDAEARKQNEQNAVATMHHNGSGVGVALASASLGGKTGSNSGLTFDGGNPNIIKNTWDKSVNNICASAAAAAAAAAAADECLMYGGYVASVADNNNANSDFCVAPLQRAKSQKQLNTDPTLMHRGSPAGSSAKGASGGGPGAAEGKRISVLGEGSYCSQRWPSLAAAGVAGACSSQLMAAASVAGSGAGTAQQQRSVVCGTPHM
B2: the FRET efficiency (FRETeff) with Lnk-CFP (Drosophila) and in the test with InR-CFP (Drosophila) [7] was under 3% each time.
